{"source": "paper PMC9926112", "target": "GST-fused N-terminal fragment of human β-spectrin (GST-hNβSp) (human) (UniProt P11277)", "sequence (P11277 1-527)": "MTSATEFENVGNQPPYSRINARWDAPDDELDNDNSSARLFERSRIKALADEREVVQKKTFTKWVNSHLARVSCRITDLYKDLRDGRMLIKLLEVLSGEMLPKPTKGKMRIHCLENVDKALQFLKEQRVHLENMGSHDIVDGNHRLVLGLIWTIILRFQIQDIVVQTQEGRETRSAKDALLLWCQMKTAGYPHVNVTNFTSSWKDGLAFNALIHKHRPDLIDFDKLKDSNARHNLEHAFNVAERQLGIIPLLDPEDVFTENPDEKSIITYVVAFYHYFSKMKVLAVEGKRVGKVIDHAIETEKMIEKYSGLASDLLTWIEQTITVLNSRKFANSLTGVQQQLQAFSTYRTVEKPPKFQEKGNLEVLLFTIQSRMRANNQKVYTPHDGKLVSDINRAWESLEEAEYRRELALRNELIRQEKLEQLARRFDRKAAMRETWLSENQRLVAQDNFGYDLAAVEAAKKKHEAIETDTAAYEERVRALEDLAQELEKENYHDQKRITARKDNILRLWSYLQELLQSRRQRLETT", "assay": "SPR; Biacore X100; GST-hNβSp (500 nM) captured on a CM5 chip by anti-GST antibody; h4.1R recombinants (GST cleaved) 150-1000 nM as analyte; PBS, 25 °C; regeneration in 10 mM Glycine-Cl pH 2.1"}
{"substance": "human protein 4.1R, wild type (h4.1R WT), cleaved from GST (natural protein)", "values": [{"measurement": "Kd", "value": 633, "unit": "nM"}, {"measurement": "kon", "value": 5040, "unit": "M⁻¹ s⁻¹"}]}
{"substance": "human 4.1R with the PE and e14 sequences of alpaca 4.1R (h4.1R[PE14]), cleaved from GST", "values": [{"measurement": "Kd", "value": 121, "unit": "nM"}, {"measurement": "kon", "value": 55100, "unit": "M⁻¹ s⁻¹"}]}
